Test results taken from patent US20110123544A1 (published 2011).
Numbering of substitutions follows the chain as printed. In names and notes the source's numbering stands. Each block holds one molecule with its values, some of them ahead of it.

How the values were obtained:
[1] = biological target: recombinant murine IL-12 (mouse) (UniProt P43431); test: cell-based or functional assay
[2] = biological target: recombinant murine IL-12 (mouse) (UniProt P43431); test: Receptor Binding Assay: inhibition of 125I-murine IL-12 binding to receptors on 2D6 cells
[3] = biological target: recombinant murine IL-12 (mouse) (UniProt P43431); test: Biomolecular Interaction Assay; C17.15 captured on goat anti-rat IgG, soluble recombinant murine IL-12
[4] = biological target: recombinant human IL-12 (rhIL-12) (human) (UniProt P29459); test: cell-based or functional assay
[5] = biological target: recombinant rhesus IL-12 (rhesus monkey) (UniProt P48091); test: cell-based or functional assay
Cyno IL-12 (PBMC sup) = biological target: T1, Cyno IL-12 (PBMC sup) (cynomolgus monkey); test: cell-based or functional assay
T1 chain 1: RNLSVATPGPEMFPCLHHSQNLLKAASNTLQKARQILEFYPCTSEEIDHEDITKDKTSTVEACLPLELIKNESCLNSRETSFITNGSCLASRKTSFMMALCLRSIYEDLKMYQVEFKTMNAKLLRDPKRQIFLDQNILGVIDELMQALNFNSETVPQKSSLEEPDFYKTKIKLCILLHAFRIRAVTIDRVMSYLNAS
T1 chain 2: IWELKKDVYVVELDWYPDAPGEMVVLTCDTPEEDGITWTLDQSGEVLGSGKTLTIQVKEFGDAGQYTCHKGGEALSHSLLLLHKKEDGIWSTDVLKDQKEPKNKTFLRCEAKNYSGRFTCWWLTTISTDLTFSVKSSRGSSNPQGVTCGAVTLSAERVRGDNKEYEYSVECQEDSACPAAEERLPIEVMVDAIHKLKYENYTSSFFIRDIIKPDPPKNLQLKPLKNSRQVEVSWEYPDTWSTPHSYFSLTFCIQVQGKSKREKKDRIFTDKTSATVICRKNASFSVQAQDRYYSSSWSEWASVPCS

Baboon IL-12 (PBMC sup) = biological target: T2, Baboon IL-12 (PBMC sup) (baboon); test: cell-based or functional assay
T2 chain 1: T1 chain 1 with F82V, N85K, K110Q, M111I, R125M, K172R
T2 chain 2: T1 chain 2 with V230A

[6] = biological target: T3, recombinant human interleukin 12 (p40/p35 heterodimer) (human, UniProt P29460 23-328; P29459 23-219); test: BIAcore; unmutated
T3 chain 1: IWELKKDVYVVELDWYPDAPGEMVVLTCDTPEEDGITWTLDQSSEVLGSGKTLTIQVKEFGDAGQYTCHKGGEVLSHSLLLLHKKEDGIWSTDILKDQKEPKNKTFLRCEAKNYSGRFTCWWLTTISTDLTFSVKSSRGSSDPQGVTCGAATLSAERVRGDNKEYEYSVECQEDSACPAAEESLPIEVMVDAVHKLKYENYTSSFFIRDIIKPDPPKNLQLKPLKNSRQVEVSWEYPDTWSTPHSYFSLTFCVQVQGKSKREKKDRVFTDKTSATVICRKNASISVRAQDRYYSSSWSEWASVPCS
T3 chain 2: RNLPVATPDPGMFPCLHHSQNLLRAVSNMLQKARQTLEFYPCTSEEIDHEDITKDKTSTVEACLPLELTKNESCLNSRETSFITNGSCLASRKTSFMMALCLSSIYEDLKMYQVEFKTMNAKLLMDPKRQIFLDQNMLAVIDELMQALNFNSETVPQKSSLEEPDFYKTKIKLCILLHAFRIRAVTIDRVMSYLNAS

[7] = biological target: T4, human IL-12 (recombinant human IL-12, p70 heterodimer of p35 and p40) (human, UniProt P29459 23-219; P29460 23-328); test: cell-based or functional assay
T4 sequence (looked up) 1: T3 chain 2
T4 sequence (looked up) 2: T3 chain 1

[8] = biological target: T5, recombinant human IL-12 (rhIL-12) (human, UniProt P29459 23-219; P29460 23-328); test: cell-based or functional assay
T5 sequence (looked up) 1: T3 chain 2
T5 sequence (looked up) 2: T3 chain 1

[9] = biological target: T5, recombinant human IL-12 (rhIL-12); test: BIAcore (SPR) off-rate on IL-12 chip
[10] = biological target: T5, recombinant human IL-12 (rhIL-12); test: RB assay: inhibition of 125I-hIL-12 binding to IL-12 receptors on PHA blasts
[11] = biological target: T6, recombinant human interleukin 12 (p40/p35 heterodimer) (human, UniProt P29460 23-328; P29459 23-219); test: surface plasmon resonance (BIAcore)
T6 construct: Disulfide-linked heterodimer; also called human IL-12; hIL-12
T6 sequence (looked up) 1: T3 chain 1
T6 sequence (looked up) 2: T3 chain 2

[12] = biological target: human IL-12 (recombinant human IL-12, p70 heterodimer of p35 and p40) (human) (UniProt P29459); test: cell-based or functional assay
[13] = biological target: human IL-12 (recombinant human IL-12, p70 heterodimer of p35 and p40) (human) (UniProt P29459); test: BIAcore SPR, IL-12 chip
[14] = biological target: T5, recombinant human IL-12 (rhIL-12); test: cell-based or functional assay; remark: listed apart in the source
[15] = biological target: human IL-12 (recombinant human IL-12, p70 heterodimer of p35 and p40) (human) (UniProt P29459); test: RB assay: 125I-hIL-12 binding to PHA blasts
[16] = biological target: T6, recombinant human interleukin 12 …; test: IL-12 receptor binding assay (RBA): inhibition of labelled IL-12 binding to PHA blasts
recombinant rhesus IL-12 = biological target: T7, recombinant rhesus IL-12 (rhesus monkey, UniProt P48095 23-328; P48091 23-219); test: neutralisation bioassays with purified rhesus IL-12
T7 construct: Obtained from Emory University School of Medicine
T7 sequence (looked up) 1: T1 chain 2
T7 sequence (looked up) 2: T1 chain 1

recombinant murine IL-12 = biological target: T8, recombinant murine IL-12 (mouse, UniProt P43432 23-335; P43431 23-215); test: neutralisation bioassay with purified murine IL-12 (2D6 cell proliferation)
T8 construct: R&D Systems Cat. No. 419-ML in the BIAcore test; 'purified murine IL-12' in the bioassays; also called mouse IL-12; rmIL12
T8 sequence (looked up) 1: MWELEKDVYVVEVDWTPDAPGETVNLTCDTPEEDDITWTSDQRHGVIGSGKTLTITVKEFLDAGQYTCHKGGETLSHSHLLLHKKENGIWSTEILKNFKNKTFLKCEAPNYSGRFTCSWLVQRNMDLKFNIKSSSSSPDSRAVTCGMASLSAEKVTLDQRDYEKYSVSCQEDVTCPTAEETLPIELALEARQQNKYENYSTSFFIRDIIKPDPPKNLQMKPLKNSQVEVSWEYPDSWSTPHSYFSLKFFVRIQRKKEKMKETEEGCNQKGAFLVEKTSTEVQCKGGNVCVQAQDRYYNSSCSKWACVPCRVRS
T8 sequence (looked up) 2: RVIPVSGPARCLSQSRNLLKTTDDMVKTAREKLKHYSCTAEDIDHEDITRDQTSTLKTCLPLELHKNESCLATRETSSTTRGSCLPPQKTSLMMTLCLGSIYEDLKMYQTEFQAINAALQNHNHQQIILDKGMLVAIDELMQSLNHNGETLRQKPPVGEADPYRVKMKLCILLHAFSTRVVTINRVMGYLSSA

Molecule: C17.15, rat anti-murine IL-12 monoclonal antibody
- IC50 (M), Mouse IL-12 Purified [1]: 3e-11 M
- PHA blast Assay IC50 [1]: 14 pM
- IC50 [2]: 0.15 nM
- Kd [3]: 0.48 nM
- koff [3]: 0.000184 s⁻¹
- kon [3]: 380000 M⁻¹ s⁻¹

Molecule: C8.6.2, mouse anti-human IL-12 monoclonal antibody
- IC50 (M), Human IL-12 Purified [4]: 5e-11 M
- IC50 (M), Rhesus IL-12 Purified [5]: 1e-10 M
- IC50 (M), Cyno IL-12 PBMC sup (Cyno IL-12 (PBMC sup)): 1.2e-10 M
- IC50 (M), Baboon IL-12 PBMC sup (Baboon IL-12 (PBMC sup)): 2e-10 M

Molecule: FIRYDGSNKYYADSVKG [Y61 H56 N]
- koff [6]: 0.000385 s⁻¹

Molecule: FIRYDGSNKYYADSVKG [Y61 H58 Y]
- koff [6]: 0.00031 s⁻¹

B2: Y61 IgG (antibody, V domains shown)
VH: QVQLVQSGGGVVQPGRSLRLSCAASGFTFSSYGMHWVRQAPGKGLEWVAFIRYDGSNKYYADSVKGRFTISRDNSKNTLYLQMKSLRAEDTAVYYCKTHGSHDNWGQGTMVTVSS
VL: SYVLTQPPSVSGTPGQRVTISCSGGRSWIGSNTVKWYQQLPGTAPKLLIYGNDQRPSGVPDRFSGSKSGTSASLAITGVQAEDEADYYCQSYDRGTHPALLFGTGTKVTVLG
- IC50 (M), Rhesus IL-12 Purified [5]: 1e-10 M
- IC50 (M), Cyno IL-12 PBMC sup (Cyno IL-12 (PBMC sup)): 2.2e-10 M

B3: Y61 (scFv, V domains shown)
VH: B2 VH
VL: B2 VL
notes: scFv; also called Y61 scFv
- PHA assay IC50 [8]: 0.14 nM
- koff [9]: 0.000275 s⁻¹
- IC50 [10]: 0.04 nM

B5: Y19 (scFv, V domains shown)
VH: B2 VH
VL: B2 VL with W28N, T96H, L100M, L101S
- PHA assay IC50 [8]: > 10 nM
- koff [9]: 0.000226 s⁻¹
- IC50 [10]: 0.03 nM

B7: Y55 (scFv, V domains shown)
VH: B2 VH
VL: B2 VL with W28N, P98F, A99Q, L100M, L101Y
- PHA assay IC50 [8]: > 10 nM
- koff [9]: 0.00106 s⁻¹
- IC50 [10]: 0.14 nM

B8: D9 (scFv, V domains shown)
VH: B2 VH
VL: B2 VL with W28N, T96R, H97L, L100Q, L101T
- koff [9]: 0.000821 s⁻¹
- IC50 [10]: 3.5 nM

Other lines, results leading:

- PHA assay IC50 [7]: 200 nM
B1: 70-1 IgG1 (antibody, V domains shown)
VH: HGSHDN
VL: QSYDSSLRGSRV

- koff [11]: ~0.0002 s⁻¹
B4: Y61 scFv (scFv, V domains shown)
VH: B2 VH
VL: B2 VL
notes: Single-chain Fv; also called clone Y61

- PHA assay IC50 [12]: 3 nM
- koff [13]: 0.00113 s⁻¹
- PHA assay IC50 (M) p70:p40 1:0 [14]: 3.5e-09 M
- PHA assay IC50 (M) p70:p40 1:20 [14]: 2.5e-09 M
- PHA assay IC50 (M) p70:p40 1:50 [14]: 4e-09 M
- IC50 [15]: 0.9 nM
B6: 149-7 (scFv, V domains shown)
VH: B2 VH with K97T
VL: SYVLTQPPSVSGTPGQRVTISCSGGRSNIGSNTVKWYQQLPGTAPKLLIYGNDQRPSGVPDRFSGSKSGTSASLAITGVQAEDEADYYCQSYDRDFTGSRVFGTGTKVTVL

- IC50 [16]: 1000 nM
B9: Joe 9 wild type (scFv, V domains shown)
VH: B2 VH with K97T, H99S, H102Y, N104Y
VL: B6 VL with R94S, D95S, F96L, T97R

- IC50 (M), Cyno IL-12 PBMC sup (Cyno IL-12 (PBMC sup)): 1e-11 M
- IC50 (M), Baboon IL-12 PBMC sup (Baboon IL-12 (PBMC sup)): 1.5e-11 M
B10: J695 (Y61-L94Y-L50Y IgG) (antibody, V domains shown)
VH: B2 VH with Q6E, K84N
VL: B2 VL with S1Q, Y2S, T13A, G25S, W28N, G51Y, V79L, G95Y

- binding result (recombinant rhesus IL-12): binds
- binding result (recombinant murine IL-12): no binding
B11: J695 human anti-human IL-12 antibody (antibody, V domains shown)
VH: B2 VH with Q6E, K84N
VL: B2 VL with S1Q, Y2S, T13A, G25S, W28N, G51Y, V79L, G95Y
notes: tested as human IgG1 with lambda light chain (detected with anti-human lambda); Made in CHO or COS cells; also called Y61-L94Y-L50Y IgG
